The experiment concerns the target rabbit albumin (rabbit) (UniProt P49065). As to the kind of experiment: BIAcore kinetic analysis.

pKd: −log10 of the molar value.

As usually defined, the pKd is the Kd on a negative log10 scale, so that one unit is a factor of ten.

rabbit albumin (rabbit), sequence (P49065 25-608 limits assumed): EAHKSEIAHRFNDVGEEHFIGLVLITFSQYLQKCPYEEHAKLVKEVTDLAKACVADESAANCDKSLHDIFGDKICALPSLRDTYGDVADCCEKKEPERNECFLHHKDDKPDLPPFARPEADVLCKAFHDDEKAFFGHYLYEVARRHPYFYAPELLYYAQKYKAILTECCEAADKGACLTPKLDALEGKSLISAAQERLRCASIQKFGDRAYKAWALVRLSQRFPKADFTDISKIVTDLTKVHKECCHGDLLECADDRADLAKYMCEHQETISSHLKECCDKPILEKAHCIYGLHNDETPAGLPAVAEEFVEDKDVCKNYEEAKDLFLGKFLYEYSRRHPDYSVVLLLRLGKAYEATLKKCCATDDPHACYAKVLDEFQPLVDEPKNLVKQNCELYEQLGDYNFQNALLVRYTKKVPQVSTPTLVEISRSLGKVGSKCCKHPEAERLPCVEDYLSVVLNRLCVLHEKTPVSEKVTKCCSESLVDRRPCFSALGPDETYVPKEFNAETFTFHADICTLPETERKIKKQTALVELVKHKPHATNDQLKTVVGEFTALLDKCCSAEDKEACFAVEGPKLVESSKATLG

In turn, ABP-hu4D5Fabv8 wild type gave a pKd of 6.91.

Source of the values: US20070092940A1.
